Test results: publication PMC6294257, “Osteocalcin triggers Fas/FasL-mediated necroptosis in adipocytes via activation of p300” (Cell Death & Disease, 2018)

Biological target: the molecule itself
Test: non-reducing SDS-PAGE and immunoblot; 3T3-L1 adipocytes incubated with GluOC for 24 h; cell lysates prepared in the absence of 2-mercaptoethanol; immunoblot with antibodies to MLKL

B1: mixed-lineage kinase domain-like protein (MLKL) (natural protein, mouse (endogenous in 3T3-L1), UniProt Q9D2Y4 1-472, looked up)
chain: MDKLGQIIKLGQLIYEQCEKMKYCRKQCQRLGNRVHGLLQPLQRLQAQGKKNLPDDITAALGRFDEVLKEANQQIEKFSKKSHIWKFVSVGNDKILFHEVNEKLRDVWEELLLLLQVYHWNTVSDVSQPASWQQEDRQDAEEDGNENMKVILMQLQISVEEINKTLKQCSLKPTQEIPQDLQIKEIPKEHLGPPWTKLKTSKMSTIYRGEYHRSPVTIKVFNNPQAESVGIVRFTFNDEIKTMKKFDSPNILRIFGICIDQTVKPPEFSIVMEYCELGTLRELLDREKDLTMSVRSLLVLRAARGLYRLHHSETLHRNISSSSFLVAGGYQVKLAGFELSKTQNSISRTAKSTKAERSSSTIYVSPERLKNPFCLYDIKAEIYSFGIVLWEIATGKIPFEGCDSKKIRELVAEDKKQEPVGQDCPELLREIINECRAHEPSQRPSVDGRSLSGRERILERLSAVEESTDKKV
notes: mixed-lineage kinase domain-like protein (MLKL), endogenous in 3T3-L1 adipocytes treated with GluOC; High-dose GluOC induces phosphorylation of MLKL, printed as Thr357/Ser358; these numbers may be those of human MLKL although the cells are mouse; source: endogenous, 3T3-L1 adipocyte lysate
stoichiometry N: 3
